Twelve substances from patent publication US20220251198A1 can be followed below.

For test [1], the target named is human FcγRI extracellular domain (human) (UniProt P12314). The test can be described thus: SPR (Biacore), FcγR ECD analyte; N=1.
Test [2] addresses human FcγRIIA_131H extracellular domain (human) (UniProt P12318). Briefly: SPR (Biacore), FcγR ECD analyte; N=1. (In general: In SPR one partner is held on a chip, and binding of the other changes the refractive index at the surface.)
Test [3] concerns the target human FcγRIIIA_158F extracellular domain (human) (UniProt P08637). Briefly: SPR (Biacore), FcγR ECD analyte; N=1.
The target in test [4] is human FcγRIIIA_158V extracellular domain (human) (UniProt P08637). Briefly: SPR (Biacore), FcγR ECD analyte; N=1.
The target of test [5] is human FcγRIIb extracellular domain (human) (UniProt P31994). The test can be described thus: SPR (Biacore), FcγR ECD analyte; N=1.
Test [6] concerns the target human FcγRIIA_131R extracellular domain (human) (UniProt P12318). Briefly: SPR (Biacore), FcγR ECD analyte; N=1.
The target in test [7] is human FcγRIIA_131H extracellular domain (human) (UniProt P12318). The test can be described thus: SPR at 25 C, antibody captured on Protein A, FcγR ECD analyte, steady state.
In test [8] the target is human FcγRIIA_131R extracellular domain (human) (UniProt P12318). The test is described as above.
Test [9] concerns the target human FcγRIIIA_158F extracellular domain (human) (UniProt P08637). The test is described as above.
Test [10] has as its target human FcγRIIIA_158V extracellular domain (human) (UniProt P08637). The description is as above.

Sequence of human FcγRIIA_131H extracellular domain (human) (P12318 34-217): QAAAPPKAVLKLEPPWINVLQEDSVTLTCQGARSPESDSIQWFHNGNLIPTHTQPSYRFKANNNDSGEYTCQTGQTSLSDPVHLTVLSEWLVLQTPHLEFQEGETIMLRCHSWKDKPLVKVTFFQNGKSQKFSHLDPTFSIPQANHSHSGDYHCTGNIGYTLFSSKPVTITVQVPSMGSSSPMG
Sequence of human FcγRI extracellular domain (human) (P12314 16-292): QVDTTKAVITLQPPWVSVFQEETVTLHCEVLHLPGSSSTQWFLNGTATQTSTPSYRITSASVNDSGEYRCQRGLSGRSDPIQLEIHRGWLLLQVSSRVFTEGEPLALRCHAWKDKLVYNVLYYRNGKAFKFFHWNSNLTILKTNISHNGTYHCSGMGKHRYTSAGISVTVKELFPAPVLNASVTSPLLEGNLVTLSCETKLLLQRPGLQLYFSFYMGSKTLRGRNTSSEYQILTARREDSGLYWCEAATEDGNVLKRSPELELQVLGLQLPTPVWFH
Sequence of human FcγRIIb extracellular domain (human) (P31994 43-217): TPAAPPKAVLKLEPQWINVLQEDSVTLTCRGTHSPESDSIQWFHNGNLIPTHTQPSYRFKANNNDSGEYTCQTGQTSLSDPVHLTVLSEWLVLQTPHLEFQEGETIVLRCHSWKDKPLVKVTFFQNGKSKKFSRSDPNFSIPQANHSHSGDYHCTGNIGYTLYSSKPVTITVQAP
Sequence of human FcγRIIIA_158F extracellular domain (human) (P08637 17-208): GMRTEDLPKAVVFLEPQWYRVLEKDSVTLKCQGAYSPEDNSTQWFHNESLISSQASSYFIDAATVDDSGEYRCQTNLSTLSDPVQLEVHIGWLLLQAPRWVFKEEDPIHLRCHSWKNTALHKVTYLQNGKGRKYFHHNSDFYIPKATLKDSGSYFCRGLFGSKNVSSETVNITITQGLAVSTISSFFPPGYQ
Sequence of human FcγRIIIA_158V extracellular domain (human) (P08637 17-208 F176V): as the sequence (P08637 17-208) above, with F160V counted along it
Sequence of human FcγRIIA_131R extracellular domain (human) (P12318 34-217 H167R): as the sequence (P12318 34-217) above, with H134R counted along it

A word on the Kd: it is the equilibrium constant for the complex coming apart. A lower Kd goes with a tighter complex. Consider “CD200R antibody IgG1 A330S + P331S + S267G”, for which the Kd in test [1] amounted to 511 pM; in test [2], 5.1 µM; in test [3], 9.8 µM; in test [4], 2.48 µM; in test [5] it was 4.3 µM.
In the case of CD200R antibody IgG1 A330S + S267G, the Kd in test [1] came out at 168 pM; in [2] it was 3.31 µM; in [6], 0.82 µM; in test [3], 10.8 µM; in [4], 1.66 µM; in [5], 4.99 µM.
As for CD200R antibody IgG1 K322A, the equilibrium dissociation constant (Kd) in test [1] was 30.5 pM; in test [2] it was 0.98 µM; in test [6], 0.82 µM; in [3] it was 2.58 µM; in [5], 3.41 µM.
Consider CD200R antibody IgG1 K322A + S267G, for which the Kd in [1] came out at 70.5 pM; in [2], 5.02 µM; in test [6] it was 0.66 µM; in test [3] it was 9.99 µM; in test [4] it was 1.65 µM; in test [5], 4.43 µM.
As for CD200R antibody IgG1 N325S + L328F, the equilibrium dissociation constant (Kd) in test [1] was 68.7 pM; in test [2] it was 2.64 µM; in [6] it was 0.06 µM; in test [4], 7.35 µM; in [5] it was 0.275 µM.
Take CD200R antibody IgG1 P331S: the Kd worked out at 54.3 pM in test [1]; 1.15 µM in [2]; 1.14 µM in test [6]; 3.11 µM in test [3]; 0.45 µM in [4]; 4.64 µM in test [5].
CD200R antibody IgG1 P331S + S267G: the Kd in [1] was 142 pM; in test [2], 5.2 µM; in [6], 0.77 µM; in test [4], 2.08 µM; in test [5], 4.38 µM.
Take CD200R antibody IgG1 S267G: the Kd in test [1] amounted to 131 pM; in [2], 3.13 µM; in test [6] it was 0.53 µM; in test [3], 4.5 µM; in [4] it was 0.73 µM; in [5] it was 3.41 µM.
Regarding Hu IgG1 (antibody), the equilibrium dissociation constant (Kd) worked out at 55.2 pM in [1]; 0.71 µM in [2]; 1.03 µM in test [6]; 2.59 µM in [3]; 4.2 µM in test [5].
As to Human IgG4P control antibody, the dissociation constant Kd in test [1] was 385 pM; in test [2], 5.12 µM; in test [6], 2.89 µM; in test [4], 5.47 µM; in test [5], 3.31 µM.
As to IgG1 Control Antibody, the dissociation constant Kd was found to be 0.5 µM in [7], 0.6 µM in test [8] and 1 µM in test [9].
In [10], IgG4 PAA Control Antibody yielded an equilibrium dissociation constant (Kd) of 8.9 µM. In other words, the single-digit micromolar range.
